The text below walks through data of publication doi:10.1101/2023.02.21.529347v1.

Holding throughout (test): purified protein
Substrate in data set [1]: CC1(C)[C@H]2CC=C(C=O)[C@@H]1C2
As to conditions: co-substrate F420H2; apparent value.

Substrate in data set [2]: CC1=CC(=O)CCC1
The following applies: co-substrate F420H2, apparent value.

Substrate in data set [3]: CC1=CC(=O)CC1
The following applies: co-substrate F420H2; apparent value.

Substrate in data set [4]: CC1=CCCC1=O
As to conditions: co-substrate F420H2; apparent value.

Substrate in data set [5]: C=C(C)[C@H]1CC=C(C)C(=O)C1
The following applies: co-substrate F420H2; apparent value.

Substrate in data set [6]: C=C(C)[C@@H]1CC=C(C)C(=O)C1
As to conditions: co-substrate F420H2; apparent value.

Substrate in data set [7]: CC1=CC(=O)CC(C)(C)C1=O
As to conditions: co-substrate F420H2; apparent value; fit with substrate inhibition.

Substrate in data set [8]: CC1=CCCCC1=O
The following applies: co-substrate F420H2; apparent value.

B1: MSMEG_2027 (Mycolicibacterium smegmatis MC2 155) (protein)
chain: MTDAELSPTDWVREQTERILEQGTTDGVHVLDRPIVLFTTTGAKSGKKRYVPLMRVEENGKYAMVASKGGDPKHPSWYFNVKANPTVSVQDGDKVLPDRTARELEGEEREHWWKLAVEAYPPYAEYQTKTDRLIPVFIVE
The term Km denotes the concentration of substrate that gives half-maximal velocity. One may read the kcat as the maximal rate divided by the concentration of active sites. B1: the Km in data set [1] is on record as 0.31 ± 0.03 mM; in data set [2] it was 4.29 ± 3.46 mM; in data set [3], 0.12 ± 0.05 mM; in data set [4], 1.00 ± 0.13 mM; in data set [5] it was 1.30 ± 0.28 mM; in data set [6], 1.29 ± 0.32 mM. Also, the Km in data set [7] is listed as 3.88 ± 0.68 mM; in data set [8], 2.56 ± 0.48 mM. In addition, the kcat is 0.74 ± 0.017 s⁻¹ in data set [1]; 1.10 ± 0.41 s⁻¹ in data set [2]; 0.01 ± 0.001 s⁻¹ in data set [3]; 0.55 ± 0.02 s⁻¹ in data set [4]; 0.09 ± 0.006 s⁻¹ in data set [5]; 0.11 ± 0.008 s⁻¹ in data set [6]. The kcat in data set [7] stood at 0.39 ± 0.05 s⁻¹; in data set [8], 0.62 ± 0.05 s⁻¹.

B2: MSMEG_2850 (Mycolicibacterium smegmatis MC2 155) (protein)
chain: MTEAIDWDQMNNQVIKEFRETGGKAGGLFEGSPLVLVHHTGAKSGKQRIAPLVPLLDGDRIYIFGSKGGADSHPDWYHNLVANPDTVVELGTETFPVKARVLTGAERDEIYAKQVAVAPQFGDYQRKTTRVIPVVELQRV
For the protein B2, the Km is 0.58 ± 0.07 mM in data set [1]; 6.73 ± 6.84 mM in data set [2] (fit with substrate inhibition); 4.30 ± 0.74 mM in data set [3]; 7.67 ± 3.21 mM in data set [4]; 2.07 ± 0.39 mM in data set [5]; 1.62 ± 0.18 mM in data set [6]. Also, the Km in data set [7] came out at 0.10 ± 0.008 mM; in data set [8] it was 9.18 ± 2.22 mM. The kcat in data set [1] is 0.16 ± 0.005 s⁻¹; in data set [2] (fit with substrate inhibition) it was 4.02 ± 3.30 s⁻¹; in data set [3] it was 0.10 ± 0.008 s⁻¹; in data set [4], 0.16 ± 0.04 s⁻¹; in data set [5], 0.05 ± 0.004 s⁻¹; in data set [6], 0.08 ± 0.003 s⁻¹. Moreover, the kcat in data set [7] was 1.35 ± 0.028 s⁻¹; in data set [8], 1.59 ± 0.23 s⁻¹.
